Measurements: the supplement of paper PMC11246515
± gives the standard deviation of the averaged measurements.

Test: total protein half-life in vivo (active degradation + dilution); higher = more stable protein
[1] = E. coli NCM3722 delta-clpP delta-lon delta-hslV, growth: N-lim chemostat, doubling time 6 h
[2] = E. coli NCM3722 delta-clpP, growth: N-lim chemostat, doubling time 6 h
[3] = E. coli NCM3722 delta-hslV, growth: N-lim chemostat, doubling time 6 h
[4] = E. coli NCM3722 delta-lon, growth: N-lim chemostat, doubling time 6 h
[5] = E. coli NCM3722 delta-smpB, growth: N-lim chemostat, doubling time 6 h
[6] = wild type E. coli NCM3722, growth: C-lim chemostat, doubling time 3 h
[7] = wild type E. coli NCM3722, growth: C-lim chemostat, doubling time 6 h
[8] = wild type E. coli NCM3722, growth: C-lim chemostat, doubling time 12 h
[9] = wild type E. coli NCM3722, growth: N-lim chemostat, doubling time 6 h
[10] = wild type E. coli NCM3722, growth: N-lim chemostat, doubling time 12 h
[11] = wild type E. coli NCM3722, growth: P-lim chemostat, doubling time 6 h
[12] = wild type E. coli NCM3722, growth: P-lim chemostat, doubling time 12 h

MKLQNSFRDYTAESALFVRRALVAFLGILLLTGVLIANLYNLQIVRFTDYQTRSNENRIKLVPIAPSRGIIYDRNGIPLALNRTIYQIEMMPEKVDNVQQTLDALRSVVDLTDDDIAAFRKERARSHRFTSIPVKTNLTEVQVARFAVNQYRFPGVEVKGYKRRYYPYGSALTHVIGYVSKINDKDVERLNNDGKLANYAATHDIGKLGIERYYEDVLHGQTGYEEVEVNNRGRVIRQLKEVPPQAGHDIYLTLDLKLQQYIETLLAGSRAAVVVTDPRTGGVLALVSTPSYDPNLFVDGISSKDYSALLNDPNTPLVNRATQGVYPPASTVKPYVAVSALSAGVITRNTTLFDPGWWQLPGSEKRYRDWKKWGHGRLNVTRSLEESADTFFYQVAYDMGIDRLSEWMGKFGYGHYTGIDLAEERSGNMPTREWKQKRFKKPWYQGDTIPVGIGQGYWTATPIQMSKALMILINDGIVKVPHLLMSTAEDGKQVPWVQPHEPPVGDIHSGYWELAKDGMYGVANRPNGTAHKYFASAPYKIAAKSGTAQVFGLKANETYNAHKIAERLRDHKLMTAFAPYNNPQVAVAMILENGGAGPAVGTLMRQILDHIMLGDNNTDLPAENPAVAAAEDH [P0AD65]
total protein half-life in vivo [1]: 7.59 ± 0.27 h
total protein half-life in vivo [2]: 6.61 ± 0.79 h
total protein half-life in vivo [3]: 6.75 ± 0.56 h
total protein half-life in vivo [4]: 6.37 ± 0.078 h
total protein half-life in vivo [5]: 5.71 ± 0.077 h
total protein half-life in vivo [6]: 3.03 ± 0.031 h
total protein half-life in vivo [7]: 6.92 ± 1.1 h
total protein half-life in vivo [8]: 11.8 ± 0.77 h
total protein half-life in vivo [9]: 6.5 ± 0.79 h
total protein half-life in vivo [10]: 13.4 ± 0.88 h
total protein half-life in vivo [11]: 6.24 ± 0.3 h
total protein half-life in vivo [12]: 13.7 ± 1 h

MSNNIRIEEDLLGTREVPADAYYGVHTLRAIENFYISNNKISDIPEFVRGMVMVKKAAAMANKELQTIPKSVANAIIAACDEVLNNGKCMDQFPVDVYQGGAGTSVNMNTNEVLANIGLELMGHQKGEYQYLNPNDHVNKCQSTNDAYPTGFRIAVYSSLIKLVDAINQLREGFERKAVEFQDILKMGRTQLQDAVPMTLGQEFRAFSILLKEEVKNIQRTAELLLEVNLGATAIGTGLNTPKEYSPLAVKKLAEVTGFPCVPAEDLIEATSDCGAYVMVHGALKRLAVKMSKICNDLRLLSSGPRAGLNEINLPELQAGSSIMPAKVNPVVPEVVNQVCFKVIGNDTTVTMAAEAGQLQLNVMEPVIGQAMFESVHILTNACYNLLEKCINGITANKEVCEGYVYNSIGIVTYLNPFIGHHNGDIVGKICAETGKSVREVVLERGLLTEAELDDIFSVQNLMHPAYKAKRYTDESEQ [P0AC38]
total protein half-life in vivo [1]: 5.54 ± 0.31 h
total protein half-life in vivo [2]: 5.5 ± 1.1 h
total protein half-life in vivo [3]: 1.13 ± 0.052 h
total protein half-life in vivo [4]: 1.68 ± 0.16 h
total protein half-life in vivo [5]: 1.68 ± 0.45 h
total protein half-life in vivo [6]: 2.42 ± 0.11 h
total protein half-life in vivo [7]: 4.284 ± 0.012 h
total protein half-life in vivo [8]: 6.58 ± 0.62 h
total protein half-life in vivo [9]: 3.1 ± 0.18 h
total protein half-life in vivo [10]: 2.93 ± 0.087 h
total protein half-life in vivo [11]: 4.79 ± 0.14 h
total protein half-life in vivo [12]: 9.237 ± 0.036 h

MDKQSLHETAKRLALELPFVELCWPFGPEFDVFKIGGKIFMLSSELRGVPFINLKSDPQKSLLNQQIYPSIKPGYHMNKKHWISVYPGEEISEALLRDLINDSWNLVVDGLAKRDQKRVRPG [P0AAT2]
total protein half-life in vivo [1]: 5.54 ± 0.35 h
total protein half-life in vivo [2]: 6.23 h
total protein half-life in vivo [3]: 5.97 ± 0.5 h
total protein half-life in vivo [4]: 6.9 ± 0.29 h
total protein half-life in vivo [5]: 5.28 ± 0.71 h
total protein half-life in vivo [6]: 3.35 ± 0.7 h
total protein half-life in vivo [7]: 5.17 ± 0.11 h
total protein half-life in vivo [8]: 11.2 ± 0.26 h
total protein half-life in vivo [9]: 4.78 ± 0.46 h
total protein half-life in vivo [10]: 10.1 ± 2.1 h
total protein half-life in vivo [11]: 4.72 ± 1.1 h
total protein half-life in vivo [12]: 10.6 ± 0.46 h

MNINRDKIVQLVDTDTIENLTSALSQRLIADQLRLTTAESCTGGKLASALCAAEDTPKFYGAGFVTFTDQAKMKILSVSQQSLERYSAVSEKVAAEMATGAIERADADVSIAITGYGGPEGGEDGTPAGTVWFAWHIKGQNYTAVMHFAGDCETVLALAVRFALAQLLQLLL
total protein half-life in vivo [1]: 4.97 ± 0.3 h
total protein half-life in vivo [2]: 4.57 ± 0.048 h
total protein half-life in vivo [3]: 4.76 ± 0.46 h
total protein half-life in vivo [4]: 5.18 ± 0.69 h
total protein half-life in vivo [5]: 4.38 ± 0.19 h
total protein half-life in vivo [6]: 3.14 ± 0.69 h
total protein half-life in vivo [7]: 6.15 ± 0.4 h
total protein half-life in vivo [8]: 9.68 h
total protein half-life in vivo [9]: 4.8 ± 0.062 h
total protein half-life in vivo [10]: 11.1 ± 3.5 h
total protein half-life in vivo [11]: 5.68 ± 0.57 h
total protein half-life in vivo [12]: 12.6 ± 0.67 h

MQTEQQRAVTRLCIQCGLFLLQHGAESALVDELSSRLGRALGMDSVESSISSNAIVLTTIKDGQCLTSTRKNHDRGINMHVVTEVQHIVILAEHHLLDYKGVEKRFSQIQPLRYPRWLVALMVGLSCACFCKLNNGGWDGAVITFFASTTAMYIRQLLAQRHLHPQINFCLTAFAATTISGLLLQLPTFSNTPTIAMAASVLLLVPGFPLINAVADMFKGHINTGLARWAIASLLTLATCVGVVMALTIWGLRGWV [P0ADD5]
total protein half-life in vivo [8]: 15.1 h
total protein half-life in vivo [11]: 6.86 h

MSELTDLLLQGPRSAPELRQRLAISQATFSRLVAREDRVIRFGKARATRYALLRPYRGIERIPVWRVDDTGKAHKFADIRLCWPQGSCLVTGADGDEQWFDGLPWYLTDLRPQGFLGRAWGRKLAAQLNLTDDIRLWQEEDVLYALTVFNGEYTGGWLVGEGNYQRWITAQHPAEIPLDQKLTHYEQLASDALAGEIVGSSAGGEQPKFTYYAQTPSGNKHVLVKFTVPQQTAVSQRWGDLLIAESIAAQILRDGGIHAIESTVLVTSNRQVFLEAERFDCKGNDGRLPIVSLEAVQSEFISSPGSWPQAMRRLCEQQLVTHQSVAQTEVIWAFGRLIANSDMHAGNLSFYLSEPPFALTPVYDMLPMVYAPNSAGMLRDAAIEVKFDLNVSKSAWLTAIPLAQQFWQTVARDPRISEAFRHIAQEMPEKIRQIEEKVARMGG
total protein half-life in vivo [2]: 5.39 ± 0.31 h
total protein half-life in vivo [4]: 5.71 ± 0.22 h
total protein half-life in vivo [5]: 4.46 ± 0.29 h
total protein half-life in vivo [6]: 2.95 ± 0.45 h
total protein half-life in vivo [7]: 5.9 ± 1.3 h
total protein half-life in vivo [8]: 10.9 ± 0.43 h
total protein half-life in vivo [9]: 4.54 ± 0.54 h
total protein half-life in vivo [10]: 9.16 ± 2.6 h
total protein half-life in vivo [11]: 2.5 h
total protein half-life in vivo [12]: 6.85 ± 3.4 h

MSFDIAKYPTLALVDSTQELRLLPKESLPKLCDELRRYLLDSVSRSSGHFASGLGTVELTVALHYVYNTPFDQLIWDVGHQAYPHKILTGRRDKIGTIRQKGGLHPFPWRGESEYDVLSVGHSSTSISAGIGIAVAAEKEGKNRRTVCVIGDGAITAGMAFEAMNHAGDIRPDMLVILNDNEMSISENVGALNNHLAQLLSGKLYSSLREGGKKVFSGVPPIKELLKRTEEHIKGMVVPGTLFEELGFNYIGPVDGHDVLGLITTLKNMRDLKGPQFLHIMTKKGRGYEPAEKDPITFHAVPKFDPSSGCLPKSSGGLPSYSKIFGDWLCETAAKDNKLMAITPAMREGSGMVEFSRKFPDRYFDVAIAEQHAVTFAAGLAIGGYKPIVAIYSTFLQRAYDQVLHDVAIQKLPVLFAIDRAGIVGADGQTHQGAFDLSYLRCIPEMVIMTPSDENECRQMLYTGYHYNDGPSAVRYPRGNAVGVELTPLEKLPIGKGIVKRRGEKLAILNFGTLMPEAAKVAESLNATLVDMRFVKPLDEALILEMAASHEALVTVEENAIMGGAGSGVNEVLMAHRKPVPVLNIGLPDFFIPQGTQEEMRAELGLDAAGMEAKIKAWLA
total protein half-life in vivo [1]: 5.82 ± 0.5 h
total protein half-life in vivo [2]: 6.08 ± 0.29 h
total protein half-life in vivo [3]: 5.79 ± 0.18 h
total protein half-life in vivo [4]: 5.92 ± 0.57 h
total protein half-life in vivo [5]: 5.36 ± 0.085 h
total protein half-life in vivo [6]: 3.01 ± 0.11 h
total protein half-life in vivo [7]: 6.16 ± 0.82 h
total protein half-life in vivo [8]: 10.7 ± 1.4 h
total protein half-life in vivo [9]: 5.82 ± 0.11 h
total protein half-life in vivo [10]: 13.6 ± 0.63 h
total protein half-life in vivo [11]: 6.55 ± 0.58 h
total protein half-life in vivo [12]: 12.6 ± 0.56 h
